Holding throughout (assay): EMSA
What all share (settings): DIG gel shift kit (2nd generation, Roche), as in ref 14; buffer, salt, pH and temperature not stated

For data set [1], the system named is GdhR WT;GdhR P6S P6S (Neisseria gonorrhoeae;Neisseria gonorrhoeae MS11), ORF:8165ddaf+ORF:8165ddaf.
In data set [2] the test system is T1, GdhR P6S P6S (Neisseria gonorrhoeae MS11), ORF:8165ddaf.
T1 sequence: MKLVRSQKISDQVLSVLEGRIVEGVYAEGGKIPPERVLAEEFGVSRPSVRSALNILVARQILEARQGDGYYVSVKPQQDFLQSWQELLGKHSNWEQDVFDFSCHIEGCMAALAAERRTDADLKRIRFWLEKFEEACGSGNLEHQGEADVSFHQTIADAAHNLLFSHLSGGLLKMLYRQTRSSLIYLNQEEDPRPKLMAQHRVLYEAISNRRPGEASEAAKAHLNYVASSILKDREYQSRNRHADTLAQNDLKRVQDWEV

The test system of data set [3] is T2, GdhR WT (Neisseria gonorrhoeae), ORF:8165ddaf.
T2 sequence: T1 sequence with S6P

Residue numbers refer to the chain shown, from its start.

Regarding “GTGGACGGGGACGGCGCGGTATTCGTGCCGCCGGAAGAATGCTGAAAATGCCGTCTGAAGCCTTTCGGGCGGCTTTTTCTACACGCCCCTTTCCCACACTCCCTCCGCCGCATCATCACCATCCTTAACCCGCATTAATAGCCATTATCGATAAAATGCTTGACCGATTACATAAGATTACGTAAAGTGTGCAAACGCATAATAATTGGTCTTACCAATTTATCTTTTAACCAAAATATCGGGTGTGCGGGATTTGAACGTCTTTCCAAACCTCGACGCGCCTTATGATGC (double strand) [lctP promoter -313 to -23]”, the binding entry in data set [1] was “binds”; in data set [2], “binds more weakly”; in data set [3] it was “binds”.
